Source: patent US20120020985A1 (MEDICAL RESEARCH COUNCIL, published 2012)

How the values were obtained:
Experiment in all cases: ELISA, receptor coated at 2 ug/ml, streptavidin-HRP, A405
rmIL-17RA-Fc = molecular target: T1, rmIL-17RA-Fc (mouse, UniProt Q60943 32-322)
T1 construct: Bought from R&D Systems, catalog 4481-MR; also called mouse IL-17RA; IL-17A receptor; not shown: Fc portion, not described
T1 sequence (looked up): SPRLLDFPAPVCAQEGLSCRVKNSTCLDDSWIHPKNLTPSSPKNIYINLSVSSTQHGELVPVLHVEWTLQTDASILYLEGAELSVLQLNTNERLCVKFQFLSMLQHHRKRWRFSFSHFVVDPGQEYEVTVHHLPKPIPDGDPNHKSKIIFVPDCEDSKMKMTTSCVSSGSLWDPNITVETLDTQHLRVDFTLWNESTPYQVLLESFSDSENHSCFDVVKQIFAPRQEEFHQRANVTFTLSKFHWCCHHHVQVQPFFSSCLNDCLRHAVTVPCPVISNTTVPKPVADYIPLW
Method: (§1) In brief, ELISA plates were coated with IL-17R-family members; IL-17RA, IL-17BR, IL-17RC or IL-17RD, or IL-13Rα control, at 2 μg/ml, incubated overnight at 4° C., washed in PBS/0.05% tween and blocked in PBS/10% FCS at room temperature for 4 hrs. Biotinylated D9.2 binding was detected using streptavidin-HRP and ELISA development solution and measuring absorbance at 405 nm.
(§2) ELISA plates were coated with IL-17R-family members; IL-17RA, IL-17BR, IL-17RC, or IL-17RD, or IL-13Rα control (R&D Systems) at 2 μg/ml overnight at 4° C. before washing in PBS/0.05% tween and blocking in PBS/10% FCS at room temperature for 4 hrs. Biotinylated D9.2 was added at 1 μg/ml in PBS/10% FCS and incubated overnight at 4° C. Plates were then washed before streptavidin-HRP was added and incubated for 1 hr at room temperature. Plates were then washed a final time before adding ELISA development solution and measuring the absorbance at 405 nm.

rmIL-17RC = molecular target: T2, rmIL-17RC (mouse, UniProt Q8K4C2 22-464, limits assumed)
T2 construct: Bought from R&D Systems, catalog 2270-ML; also called mouse IL-17RC; IL-17C receptor
T2 sequence (looked up): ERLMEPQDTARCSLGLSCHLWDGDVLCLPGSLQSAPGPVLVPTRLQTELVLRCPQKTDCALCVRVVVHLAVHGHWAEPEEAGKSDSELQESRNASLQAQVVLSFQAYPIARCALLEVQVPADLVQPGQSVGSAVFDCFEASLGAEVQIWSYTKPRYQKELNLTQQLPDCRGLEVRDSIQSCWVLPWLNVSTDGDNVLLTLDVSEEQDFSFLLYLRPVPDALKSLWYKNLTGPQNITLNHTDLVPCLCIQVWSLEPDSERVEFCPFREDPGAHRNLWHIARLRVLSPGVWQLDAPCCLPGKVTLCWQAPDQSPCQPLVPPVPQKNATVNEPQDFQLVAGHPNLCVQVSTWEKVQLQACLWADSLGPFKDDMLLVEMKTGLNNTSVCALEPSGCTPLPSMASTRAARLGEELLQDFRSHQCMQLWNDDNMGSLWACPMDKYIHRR
Method: as §1, §2

rhIL-17RC = molecular target: T3, rhIL-17RC (human, UniProt Q8NAC3-2 21-467, limits assumed)
T3 construct: Bought from R&D Systems, catalog 2269-IL; also called human IL-17RC; IL-17C receptor
T3 sequence (looked up): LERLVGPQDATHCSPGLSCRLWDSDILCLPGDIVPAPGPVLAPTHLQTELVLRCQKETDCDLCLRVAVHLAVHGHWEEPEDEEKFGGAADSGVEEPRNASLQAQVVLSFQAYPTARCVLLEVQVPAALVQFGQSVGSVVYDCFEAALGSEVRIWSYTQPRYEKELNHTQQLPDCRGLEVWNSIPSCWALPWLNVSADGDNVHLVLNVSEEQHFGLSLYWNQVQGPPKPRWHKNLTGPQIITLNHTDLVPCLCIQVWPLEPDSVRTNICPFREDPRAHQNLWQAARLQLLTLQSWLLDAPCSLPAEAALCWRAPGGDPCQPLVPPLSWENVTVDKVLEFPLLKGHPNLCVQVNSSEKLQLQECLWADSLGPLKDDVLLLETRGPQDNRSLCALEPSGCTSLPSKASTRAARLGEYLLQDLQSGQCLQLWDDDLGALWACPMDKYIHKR
Method: as §1, §2

rhIL-17RA-Fc = molecular target: T4, rhIL-17RA-Fc (human, UniProt Q96F46 33-320)
T4 construct: Bought from R&D Systems, catalog 177-IR; also called human IL-17RA; IL-17A receptor; not shown: Fc portion, not described
T4 sequence (looked up): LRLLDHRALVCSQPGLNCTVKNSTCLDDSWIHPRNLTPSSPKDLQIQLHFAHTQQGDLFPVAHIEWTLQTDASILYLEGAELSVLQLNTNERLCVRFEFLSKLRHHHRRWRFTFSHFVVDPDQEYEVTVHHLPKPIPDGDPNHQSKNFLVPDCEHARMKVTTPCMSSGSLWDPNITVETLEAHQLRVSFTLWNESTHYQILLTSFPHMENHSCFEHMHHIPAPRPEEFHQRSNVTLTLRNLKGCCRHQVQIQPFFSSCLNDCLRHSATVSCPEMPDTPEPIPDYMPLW
Method: as §1, §2

rmIL-17RD (Sef) = molecular target: T5, rmIL-17RD (Sef) (mouse, UniProt Q8JZL1 27-299, limits assumed)
T5 construct: Bought from R&D Systems, catalog 2276-ML; also called mouse IL-17RD; IL-17D receptor
T5 sequence (looked up): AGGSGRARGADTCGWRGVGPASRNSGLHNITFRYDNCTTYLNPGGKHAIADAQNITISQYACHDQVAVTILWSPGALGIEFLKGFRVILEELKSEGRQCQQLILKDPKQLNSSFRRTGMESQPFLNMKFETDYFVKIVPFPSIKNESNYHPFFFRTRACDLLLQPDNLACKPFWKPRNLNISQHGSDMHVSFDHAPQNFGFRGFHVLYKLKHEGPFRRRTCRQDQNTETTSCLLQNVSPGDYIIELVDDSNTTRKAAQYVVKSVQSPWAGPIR
Method: as §1, §2

rhIL-17RD (Sef) = molecular target: T6, rhIL-17RD (Sef) (human, UniProt Q8NFM7 27-299, limits assumed)
T6 construct: Bought from R&D Systems, catalog 2275-IL; also called human IL-17RD; IL-17D receptor
T6 sequence (looked up): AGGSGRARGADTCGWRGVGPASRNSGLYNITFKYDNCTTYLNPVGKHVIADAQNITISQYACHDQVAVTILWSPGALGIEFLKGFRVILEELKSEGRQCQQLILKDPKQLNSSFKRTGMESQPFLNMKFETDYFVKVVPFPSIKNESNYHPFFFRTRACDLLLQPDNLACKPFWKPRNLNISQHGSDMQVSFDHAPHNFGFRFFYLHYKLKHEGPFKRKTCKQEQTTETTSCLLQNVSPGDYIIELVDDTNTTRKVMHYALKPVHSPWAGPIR
Method: as §1, §2

B1: anti-IL-17BR clone D9.2 (antibody, V domains shown)
VH: QVQLQQPGAELVRPGASVKLSCKTSGYTFISYWMNWVKQGGPEQGLEWIGRIDPYDSEIQYNQKFKDKAILTVDKSSSAAYMQLISLTSEDSAVYYCARSGGFDWFAYWGQGTLVTVS
VL: DIQMTQSPASLSVSVGETVTITCRASENINSNLAWYQQKKGKSPQLLVYDVTNLADGVPSRFSGSGSGTQYSLKINSLQSEDFGSYYCQHFWRPPYTFGGGTNLEIK
notes: Mouse monoclonal from a hybridoma; heavy chain amplified with an IgG1 constant region primer and light chain with a kappa primer (mouse IgG1 kappa); also called mouse monoclonal antibody D9.2; D9.2 antibody clone
rmIL-17RA-Fc
  binding result: no binding (tested: 1 ug/ml biotinylated D9.2)
rmIL-17RC
  binding result: no binding (tested: 1 ug/ml biotinylated D9.2)
rhIL-17RC
  binding result: no binding (tested: 1 ug/ml biotinylated D9.2)
rhIL-17RA-Fc
  binding result: no binding (tested: 1 ug/ml biotinylated D9.2)
rmIL-17RD (Sef)
  binding result: no binding (tested: 1 ug/ml biotinylated D9.2)
rhIL-17RD (Sef)
  binding result: no binding (tested: 1 ug/ml biotinylated D9.2)
